These results are taken from patent CN111690066A (NANJING RONGJIEKANG BIOTECHNOLOGY CO LTD, dated 2020).

The target of assay [1] is T1, 自产IL-4Rα重组蛋白 (in-house human recombinant IL-4Rα, residues 26-232 of NP_000409.1, expressed in 293F cells) (human, UniProt P24394 26-232).
T1 construct: range 26-232; Cloned into pcDNA3.4 and expressed in 293F cells; The construct itself is defined on NP_000409.1; also called RJK; 人源重组IL-4Rα蛋白
T1 sequence (looked up): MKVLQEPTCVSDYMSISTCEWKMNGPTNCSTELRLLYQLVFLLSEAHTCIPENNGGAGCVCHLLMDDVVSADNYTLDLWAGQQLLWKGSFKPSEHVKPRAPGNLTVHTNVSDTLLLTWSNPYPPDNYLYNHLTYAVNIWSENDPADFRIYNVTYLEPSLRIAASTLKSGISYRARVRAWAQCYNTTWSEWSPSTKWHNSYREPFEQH
Briefly: BLI (Octet RED96), IL-4Rα loaded on the sensor, antibody in solution from 100 nM in 2-fold dilutions.

Assay [2] deals with T1, 自产IL-4Rα重组蛋白 (in-house human …). As to the kind of experiment: binding ELISA of purified VHH on IL-4Rα recombinant protein. On the technique in general: An ELISA detects its analyte on a solid surface through an enzyme-linked reagent.

B1: 单域抗体 4E9 (VHH)
VHH: QVQLVESGGGSVQAGGSLRLSCAASGDFYCMAWFRQAPGKEREGVATIRSGGRSTYYADSVKGRFTISKDNAKDTLYLQMNSLKPEDTAMYYCAVGVDGNCRNYWGQGTQVTVSS
One may read the Kd as the equilibrium constant for the complex coming apart. Usually koff stands for the first-order rate constant of dissociation. A word on the kon: it is the second-order rate constant of association. The term EC50 denotes the concentration that produces a half-maximal response. As to B1, in assay [1], the Kd stood at 0.239 nM, the koff turned out to be 0.000133 s⁻¹ and the kon is 556000 M⁻¹ s⁻¹. Besides, the EC50 in assay [2] was 2.13 nM.

B2: 单域抗体 1A9 (VHH)
VHH 1: QVPLQQSGPELVKPGASVKISCKASGYAFSSSWMNWVKQRPGKGLEWIGRIYPGDGDTKYNGKFKGKATLTADKSSSTAYMQLSSLTSEDSAVYFCARDDYDEASWGQGTLVTVSA
VHH 2: DIVMTQSQKFMSTSVGDRVSITCKASQNVRSAVAWYQQKPGQSPKSLIYLASNRHTGVPDRFTGSGSGTDFTLTISNVQSEDLADYFCLQHWNYPFTFGSGTKLEIK
For the molecule B2, the EC50 in assay [2] was 2.72 nM.
